Laboratory results taken from US20250325672A1.
Non-standard residues stand in square brackets, D forms with d. No end group written: not given here. Sar = CNCC(=O)O

Columns and labels:
[1] = biological target: COVID-19 S1 Spike Protein Mutant A475V (SARS-CoV-2), P0DTC2; experiment: FP direct binding
[2] = biological target: COVID-19 S1 Spike Protein Mutant N354D, D364Y (SARS-CoV-2), P0DTC2; experiment: FP direct binding
[3] = biological target: COVID-19 S1 Spike Protein Mutant F490L (SARS-CoV-2), P0DTC2; experiment: FP direct binding
[4] = biological target: COVID-19 S1 Spike Protein Mutant G476S (SARS-CoV-2), P0DTC2; experiment: FP direct binding
[5] = biological target: COVID-19 S1 Spike Protein Mutant L452R (SARS-CoV-2), P0DTC2; experiment: FP direct binding
[6] = biological target: COVID-19 S1 Spike Protein Mutant V483A (SARS-CoV-2), P0DTC2; experiment: FP direct binding
[7] = biological target: COVID-19 S1 Spike Protein Mutant E484K (SARS-CoV-2), P0DTC2; experiment: FP direct binding
[8] = biological target: wild-type (WT) S1 domain of the SARS-COV-2 Spike Protein (ACROBiosystems, S1N-C82E8) (SARS-CoV-2), P0DTC2; experiment: FP direct binding
[9] = biological target: COVID-19 S1 Spike Protein Mutant Y453F (SARS-CoV-2), P0DTC2; experiment: FP direct binding
[10] = biological target: COVID-19 S1 Spike Protein Mutant N501Y (SARS-CoV-2), P0DTC2; experiment: FP direct binding
[11] = biological target: COVID-19 S1 Spike Protein Mutant N439K (SARS-CoV-2), P0DTC2; experiment: FP direct binding
[12] = biological target: COVID-19 S1 Spike Protein Mutant K417N, E484K, N501Y (SARS-CoV-2), P0DTC2; experiment: FP direct binding
[13] = biological target: Biotinylated 2019-nCoV (COVID-19) S1 protein (16-685), His, Avitag (SARS-CoV-2), P0DTC2; experiment: SPR, Biacore T200, geomean
[14] = biological target: COVID-19 S1 Spike Protein Mutant A262S (SARS-CoV-2), P0DTC2; experiment: FP direct binding
[15] = biological target: COVID-19 S1 Spike Protein Mutant P272L (SARS-CoV-2), P0DTC2; experiment: FP direct binding

Binder | Kd [1] | Kd [4] | Kd [6] | Kd [7] | Kd [8] | other results
ACDVCGLNAFNRCA[Sar][Sar][Sar][Sar][Sar][Sar][KFl] (cysteine pairing not given here) [BCY16287] | 54 nM | 58 nM | 69 nM | 55 nM |  | Kd [2]: 1120 nM; Kd [3]: 49 nM; Kd [5]: 53 nM
CYNHANPVCRYYC (modifications not checked) [BCY16540] |  |  |  |  | > 883 nM | 
ACRQSQCDWWAIRSFCA[Sar][Sar][Sar][Sar][Sar][Sar][KFl] (cysteine pairing not given here) [BCY15324] | 629 nM | 588 nM | 751 nM | 1490 nM |  | Kd [9]: 366 nM; Kd [10]: 1260 nM; Kd [11]: 529 nM
ACEDHDWVYCSTCA[Sar][Sar][Sar][Sar][Sar][Sar][KFl] (cysteine pairing not given here) [BCY15299] | 710 nM | 944 nM | 988 nM | 475 nM |  | Kd [12]: 676 nM; Kd [3]: 441 nM; Kd [9]: 579 nM; Kd [5]: 548 nM; Kd [10]: 935 nM; Kd [11]: 531 nM
CASPDNPVCRFYC (modifications not checked) [BCY16534] |  |  |  |  | 381 nM | 
CPYVAGRGTCLLC (modifications not checked) [BCY16312] |  |  |  |  | 759 nM | 
CRNPDNPVCRFYC (modifications not checked) [BCY16905] |  |  |  |  |  | Kd [13]: 10 nM
ACFDDWTCYIQMCA[Sar][Sar][Sar][Sar][Sar][Sar]K(Fl) (not fully specified; cysteine pairing not given here) [BCY15437] |  |  |  |  |  | Kd [14]: 15 nM; Kd [15]: 17 nM
